This note sets out measurements from paper PMC7020240.

The target of this assay is C-FLuc-MESA MEC construct (wild type) (P. falciparum). The experiment in a line: split reporter.

As to “N-FLuc-ANK1 fragment 3 (amino acids 823 - 1375) (domain or fragment)”, the fold increase of relative luciferase activity turned out to be 200 fold.
